Patent publication US20120180150A1 (published 2012)

Target: T1, mouse IP3R1 full length with C-terminal GFP (mouse, UniProt P11881 1-2749)
T1 construct: also called IP3R1-GFP; IP3R-GFP protein; not shown: C-terminal GFP of the pEGFP-N1 vector, with any linker from the cloning site
Experiment: HA-matrix co-immunoprecipitation from HEK 293 cells, anti-GFP Western blot
Description: Into HEK 293 cells, a full length IP3R1-GFP expression plasmid and each of the KRAP full length, the deletion mutants, or the point-mutant expression plasmids were introduced together with lipofectamine LTX (Invitrogen), respectively, and the resulting cells were incubated for 24 hours. They were then homogenized in an extracting buffer (50 mM Tris-HCl, pH7.5, 140 mM NaCl, 0.5% NP40, 0.25M NDSB-201 (Calbiochem), and protease inhibitors (Complete EDTA-free, Roche)), and the homogenized mixture was centrifuged at 15,000 rpm for 30 minutes. The resulting supernatant was then subjected to immunoprecipitation with HA matrix (Roche) to precipitate the IP3R-GFP protein binding to the KRAP protein, and the precipitated IP3R-GFP protein was detected by Western blots using a rabbit polyclonal antibody (Clonetech) as an anti-GFP antibody. In the experiment using HCT 116 cells, the presence or absence of co-precipitation of the endogenous IP3R protein was investigated without transfection of the IP3R-GFP protein using a mouse monoclonal antibody (BD Transduction Laboratory) as an anti-IP3R3 antibody.

T1 sequence (P11881 whole entry S1044R/E1045K): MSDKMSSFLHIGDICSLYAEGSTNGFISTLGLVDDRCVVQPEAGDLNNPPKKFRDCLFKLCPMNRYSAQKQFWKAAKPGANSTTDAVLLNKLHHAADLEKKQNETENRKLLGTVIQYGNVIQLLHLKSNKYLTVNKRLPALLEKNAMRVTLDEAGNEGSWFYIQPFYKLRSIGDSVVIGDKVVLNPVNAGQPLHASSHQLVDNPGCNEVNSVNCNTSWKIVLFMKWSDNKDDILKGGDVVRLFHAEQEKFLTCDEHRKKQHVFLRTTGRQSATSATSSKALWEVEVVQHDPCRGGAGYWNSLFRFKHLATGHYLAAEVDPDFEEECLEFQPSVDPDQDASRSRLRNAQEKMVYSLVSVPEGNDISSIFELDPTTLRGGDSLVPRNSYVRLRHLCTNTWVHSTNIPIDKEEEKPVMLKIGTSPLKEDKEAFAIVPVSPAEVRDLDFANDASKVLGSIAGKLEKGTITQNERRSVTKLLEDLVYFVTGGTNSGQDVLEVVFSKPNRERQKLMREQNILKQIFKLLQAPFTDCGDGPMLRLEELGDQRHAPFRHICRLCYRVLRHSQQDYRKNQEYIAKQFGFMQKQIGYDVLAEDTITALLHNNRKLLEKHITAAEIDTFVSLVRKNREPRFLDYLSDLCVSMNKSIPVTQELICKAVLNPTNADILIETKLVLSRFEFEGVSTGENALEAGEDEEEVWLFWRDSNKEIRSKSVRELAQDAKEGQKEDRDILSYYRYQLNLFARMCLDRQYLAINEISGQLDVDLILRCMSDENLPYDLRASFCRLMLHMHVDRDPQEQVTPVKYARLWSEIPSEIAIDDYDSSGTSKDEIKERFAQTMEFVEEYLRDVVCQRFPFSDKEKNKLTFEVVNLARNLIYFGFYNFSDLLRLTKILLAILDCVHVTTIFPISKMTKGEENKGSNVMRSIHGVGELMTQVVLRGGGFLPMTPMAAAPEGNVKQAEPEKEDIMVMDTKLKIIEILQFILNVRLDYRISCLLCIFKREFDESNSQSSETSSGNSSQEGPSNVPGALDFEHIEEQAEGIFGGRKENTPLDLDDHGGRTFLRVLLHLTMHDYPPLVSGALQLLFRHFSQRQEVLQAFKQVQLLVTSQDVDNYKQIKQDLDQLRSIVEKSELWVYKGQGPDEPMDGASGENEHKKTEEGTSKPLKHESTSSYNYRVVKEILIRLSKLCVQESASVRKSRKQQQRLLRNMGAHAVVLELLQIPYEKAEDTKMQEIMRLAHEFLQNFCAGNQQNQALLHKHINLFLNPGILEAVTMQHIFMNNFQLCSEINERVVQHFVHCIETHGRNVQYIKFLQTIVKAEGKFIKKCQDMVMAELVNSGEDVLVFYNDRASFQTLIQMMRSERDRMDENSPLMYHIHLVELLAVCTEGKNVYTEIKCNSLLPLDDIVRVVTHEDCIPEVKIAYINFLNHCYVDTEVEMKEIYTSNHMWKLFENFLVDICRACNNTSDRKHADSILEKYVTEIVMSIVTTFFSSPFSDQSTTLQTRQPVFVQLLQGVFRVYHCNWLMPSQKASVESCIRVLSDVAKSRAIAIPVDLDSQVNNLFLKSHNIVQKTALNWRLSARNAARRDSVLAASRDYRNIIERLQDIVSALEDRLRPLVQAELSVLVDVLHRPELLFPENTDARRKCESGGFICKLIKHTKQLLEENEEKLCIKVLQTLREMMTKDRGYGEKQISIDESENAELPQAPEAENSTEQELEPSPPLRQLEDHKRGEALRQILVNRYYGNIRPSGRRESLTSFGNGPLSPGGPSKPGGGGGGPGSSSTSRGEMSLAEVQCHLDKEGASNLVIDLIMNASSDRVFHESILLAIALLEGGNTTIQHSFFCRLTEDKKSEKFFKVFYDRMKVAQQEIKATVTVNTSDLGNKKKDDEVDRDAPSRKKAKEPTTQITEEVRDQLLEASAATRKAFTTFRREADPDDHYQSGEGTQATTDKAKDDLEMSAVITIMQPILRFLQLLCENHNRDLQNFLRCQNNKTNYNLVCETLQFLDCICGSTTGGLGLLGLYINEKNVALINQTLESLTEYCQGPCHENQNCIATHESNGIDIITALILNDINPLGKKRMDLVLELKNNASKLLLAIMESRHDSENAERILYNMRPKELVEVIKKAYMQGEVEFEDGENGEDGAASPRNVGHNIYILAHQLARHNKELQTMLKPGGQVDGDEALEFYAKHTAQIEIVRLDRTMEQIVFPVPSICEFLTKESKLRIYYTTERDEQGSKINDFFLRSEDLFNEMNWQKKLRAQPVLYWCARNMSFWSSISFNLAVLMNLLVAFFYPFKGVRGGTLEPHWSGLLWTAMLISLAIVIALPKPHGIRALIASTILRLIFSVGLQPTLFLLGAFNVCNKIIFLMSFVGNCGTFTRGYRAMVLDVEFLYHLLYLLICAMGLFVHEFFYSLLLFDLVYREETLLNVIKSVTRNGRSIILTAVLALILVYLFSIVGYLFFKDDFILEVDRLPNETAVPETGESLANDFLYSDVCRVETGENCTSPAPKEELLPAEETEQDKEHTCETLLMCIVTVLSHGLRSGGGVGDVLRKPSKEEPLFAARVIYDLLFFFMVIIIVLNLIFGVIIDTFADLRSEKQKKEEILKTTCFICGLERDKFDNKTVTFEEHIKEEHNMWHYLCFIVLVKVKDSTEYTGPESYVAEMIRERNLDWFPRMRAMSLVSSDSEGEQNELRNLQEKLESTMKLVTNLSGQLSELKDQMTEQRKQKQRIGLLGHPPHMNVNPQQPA

B1: mouse KRAP deletion mutant composed of the coiled-coil region only (988-1252), N-terminal HA tag (other)
chain: HMTEEDRYEVDQLQGLRNSVRMELQDLEMQLEERLLGLDEQLRAVRVPSPFRPSALPGMCGSRSVDNLSCPSPLNVMEPVTELMREQSYLKSELGLGLGDMAYEIPPGESSESVFSQATSESSSVCSSPSHTNRRSRGLPGSKPRARLVARKKIFRASVALTPTAPSRTGSVQTPPDLESSEEAGGAEEASPVVGLASHVEEEPEDLSLMPAAEEMHRNVEQDELQQVIREIKESIVGEIRREIVSGLLAAVASSKAPGPKQDSH
notes: not shown: N-terminal HA tag of the pCMV-HA vector
B1: no binding.
